This assay has as its target IL4Rα on TF1 cells (UniProt P24394). Put plainly: cell-based or functional assay.

B1: Dupilumab (antibody, INN chains, looked up, V domains shown)
VH: EVQLVESGGGLEQPGGSLRLSCAGSGFTFRDYAMTWVRQAPGKGLEWVSSISGSGGNTYYADSVKGRFTISRDNSKNTLYLQMNSLRAEDTAVYYCAKDRLSITIRPRYYGLDVWGQGTTVTVSS
VL: DIVMTQSPLSLPVTPGEPASISCRSSQSLLYSIGYNYLDWYLQKSGQSPQLLIYLGSNRASGVPDRFSGSGSGTDFTLKISRVEAEDVGFYYCMQALQTPYTFGQGTKLEIKR
With B1, the IC50 (nM) Blocking IL4, TF-1 cell proliferation came to 3.1 nM; the IC50 (nM) Blocking IL13, TF-1 cell proliferation came to 20.5 nM; the Relative activity (blocking IL4, against Dupilumab) was 1 fold; the Relative activity (blocking IL13, against Dupilumab) worked out at 1 fold.
